These are literature values, as cited in PMC7532970.

Where two headings read alike, the source gives them in different places.

For data set [1], the target named is CBP KIX (Homo sapiens) (UniProt Q92793).
Data set [2] shares this target. The source holds these as a separate data set.
Data set [3] shares this target. This is another data set of the same source.

Chain of CBP KIX (Homo sapiens) (Q92793 584-669): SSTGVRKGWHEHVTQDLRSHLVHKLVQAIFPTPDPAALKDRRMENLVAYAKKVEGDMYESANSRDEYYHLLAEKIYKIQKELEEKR
Chain of CREB (P16220 whole entry): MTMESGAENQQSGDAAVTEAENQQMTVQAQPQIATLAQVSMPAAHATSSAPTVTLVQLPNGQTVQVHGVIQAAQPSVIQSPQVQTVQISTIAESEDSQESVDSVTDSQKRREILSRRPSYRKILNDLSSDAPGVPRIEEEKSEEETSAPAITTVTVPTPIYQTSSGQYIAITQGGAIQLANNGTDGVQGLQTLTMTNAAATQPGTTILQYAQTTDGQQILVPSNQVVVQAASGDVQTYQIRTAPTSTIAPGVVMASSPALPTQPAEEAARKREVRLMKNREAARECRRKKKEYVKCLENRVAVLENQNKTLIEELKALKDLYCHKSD
Chain of c-myb (P10242 whole entry): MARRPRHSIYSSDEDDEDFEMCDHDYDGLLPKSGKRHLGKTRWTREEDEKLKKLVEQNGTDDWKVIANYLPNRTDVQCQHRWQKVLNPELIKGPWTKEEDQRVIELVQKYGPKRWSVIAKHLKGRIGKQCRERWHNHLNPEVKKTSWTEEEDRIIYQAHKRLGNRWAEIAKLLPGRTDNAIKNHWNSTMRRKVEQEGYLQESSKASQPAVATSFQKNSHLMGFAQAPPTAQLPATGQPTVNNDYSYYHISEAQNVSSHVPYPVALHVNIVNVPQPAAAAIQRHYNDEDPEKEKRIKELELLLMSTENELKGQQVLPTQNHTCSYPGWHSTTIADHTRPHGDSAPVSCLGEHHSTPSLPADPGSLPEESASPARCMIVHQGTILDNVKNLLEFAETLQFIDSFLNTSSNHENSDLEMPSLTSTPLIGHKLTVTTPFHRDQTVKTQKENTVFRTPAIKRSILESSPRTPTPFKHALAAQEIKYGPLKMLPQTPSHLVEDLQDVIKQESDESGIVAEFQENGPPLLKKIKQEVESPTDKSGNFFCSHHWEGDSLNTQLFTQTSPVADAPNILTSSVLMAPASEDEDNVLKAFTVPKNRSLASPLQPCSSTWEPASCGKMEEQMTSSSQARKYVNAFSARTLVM

Consider CREB (from UniProt P16220), for which the equilibrium dissociation constant (Kd) in the data set with CBP KIX (Homo sapiens) [1] was 0.7 µM. Turning to c-myb (from UniProt P10242), the Kd with CBP KIX (Homo sapiens) [2] was 15 µM. As to p53 (from UniProt P04637), the dissociation constant Kd with CBP KIX (Homo sapiens) [3] was over 90 µM.
